The values below come from US20040265808A1, “Genes involved in osteogenesis, and methods of use” (priority 2001, published 2004).

Holding throughout (assay type): cell-based, mouse
Data set [1] concerns pluripotent cells C3H10T1/2, ST2 and C2C12. The experiment in a line: Wnt-frizzled pathway and osteoblast differentiation, alkaline phosphatase measurement in pluripotent cells. The note with it: for effect on BMP-2: C3H10T1/2 cells; for effect on the activity of Wnt proteins (Wnt1, Wnt2, Wnt3a), alkaline phosphatase measurement: C3H10T1/2. From the text:
FIGS. 1 to 7 represents the relationship between members of the Wnt-frizzled family, with bone formation, by measurement of alkaline phosphatase (ALP).
The inventors have also tested the capacity of Fz1 to interact with Wnt proteins and thus affect osteoblast differentiation. Overexpression of Fz1 decreased the activity of Wnt1, Wnt2 and Wnt3a in pluripotent cells C3H10T1/2 as determined by the alkaline phosphatase measurement (FIG. 4). However the expression of Fz3 or Fz4 increased the activity of Wnt proteins in the differentiation process (FIG. 6). […] This indicate that Frizzled may negatively or positively cooperate with their ligand proteins, Wnt, in these bone-related cells.
(§1) Mouse cell lines representing different stages of osteoblastic differentiation, C2C12, C2H10T1/2, ST2 and MC3T3-E1, were grown in the presence of agents capable of the induction of osteoblastic differentiation in vitro such as BMP2 and Sonic Hedgehog or in the presence of TGF beta (negative control) or with serum alone. Primary cells derived from mouse calvaria were also cultured for 0, 2, 7 14 and 21 days and RNA prepared for each time point. For example, C3H10T ½ and C2C12 can be obtained from the ATCC (Manassas, Va., USA) under the collection numbers CCL-226 and CRL-1772, respectively.

A further data set concerns C2C12 cells. The data set is described as follows: Transient over-expression of candidate genes, cooperation with BMP2 by measurement of alkaline phosphatase. More on the design: key: +: positive or negative cooperation with BMP2; −: positive or negative cooperation with BMP2. How it is done: as §1
(§2) The candidates genes are cloned in expression vectors and their ability to express a protein of the expected size verified by COS cells transient transfection. The genes are then transfected in C3H10T1/2 cells and/or C2C12 cells (transient over-expression) and positive or negative cooperation with BMP2 is evaluated by the measurement of alkaline phosphatase (enzymatic assay and TaqMan) at 48 hours. Controls of positive cooperation, recombinant Sonic Hedgehog, or negative cooperation, recombinant Noggin, are included in each test.

The subject of another data set is C3H10T1/2 cells. The description is as above. Details: key: +: positive or negative cooperation with BMP2; −: positive or negative cooperation with BMP2. The following applies: for Validation in vitro (coop over BMP2) C3H10T1/2: alkaline phosphatase. How it is done: as §1, §2

For the molecule `O=c1cc(-c2ccc(O)cc2)oc2cc(O)cc(O)c12` [Apigenin, reference compound], the “activity of BMP-2 and Shh” value in data set [1] (C3H10T1/2, ST2 and C2C12) is “able to block”.

Take “TCF3: TCF protein, transcription factor of the Wnt pathway”: in data set [1], the “effect on BMP-2” value is recorded as “inhibitors”.

Turning to “Fz4: frizzled receptor expressed in C3H10T1/2 cells”, the “effect on the activity of Wnt proteins (Wnt1, Wnt2, Wnt3a), alkaline phosphatase measurement” value in data set [1] (overexpression) was “increased”.

Regarding “SEQ ID No 37: candidate gene, receptor tyrosine kinase Ufo/Ax1, overexpressed in cells”, the “BMP2 induced Alkaline phosphatase activity” value in data set [1] (overexpressed in C2C12 or C3H10T1/2 cells) is “repress”.

For “TCF4: TCF protein, transcription factor of the Wnt pathway”, the “effect on BMP-2” value in data set [1] was “inhibitors”.

Consider “Fz3: frizzled receptor expressed in C3H10T1/2 cells”, for which the “effect on the activity of Wnt proteins (Wnt1, Wnt2, Wnt3a), alkaline phosphatase measurement” value in data set [1] (overexpression) is reported as “increased”.

In the case of Wnt3a, the “production of alkaline phosphatase (osteoblast differentiation)” value in data set [1] (overexpression, C3H10T1/2, ST2 and C2C12) is reported as “increases”.

B1: 42 (nucleic acid, listed as Mus musculus)
chain: CGATCGATATGGCAGACACGTTTTCGCTTAACGATGCCTTAGCTGGCTCTGGAAACCCAAACCCTCAAGGATATCCGGGTGCATGGGGGAACCAGCCTGGGGCAGGGGGCTACCCAGGGGCTGCCTATCCTGGGGCCTATCCAGGACAGGCTCCTCCAGGGGCCTACCCAGGACAGGCTCCTCCAGGGGCCTATCCAGGACAGGCTCCTCCTAGTGCCTACCCCGGCCCAACTGCCCCTGGAGCTTATCCTGGCCCAACTGCCCCTGGAGCTTATCCTGGCTCAACTGCCCCTGGAGCCTTCCCAGGGCAACCTGGGGCACCTGGGGCCTACCCCAGTGCTCCTGGAGGCTATCCTGCTGCTGGCCCTTATGGTGTCCCCGCTGGACCACTGACGGTGCCCTATGACCTGCCCTTGCCTGGAGGAGTCATGCCCCGCATGCTGATCACAATCATGGGCACAGTGAAACCCAACGCAAACAGGATTGTTCTAGATTTCAGGAGAGGGAATGATGTTGCCTTCCACTTTAACCCCCGCTTCAATGAGAACAACAGAAGAGTCATTGTGTGTAACACGAAGCAGGACAATAACTGGGGAAAGGAAGAAAGACAGTCAGCCTTCCCCTTTGAGAGTGGAAAACCATTCAAAATACAAGTCCTGGTTGAAGCTGACCACTTCAAGGTTGCGGTCAACGATGCTCACCTACTGCAGTACAACCATCGGATGAAGAACCTCCGGGAAATCAGCCAACTGGGGATCAGTGGTGACATAACCCTCACCAGCGCTAACCACGCCATGATCGCGGCCGCTT
For B1, the “Validation in vitro (coop over BMP2) C2C12” value in the data set on C2C12 cells is reported as “−”. For the same molecule, the “Validation in vitro (coop over BMP2) C3H10T1/2” value in the data set on C3H10T1/2 cells was “−”.

B2: 55 (nucleic acid, listed as Mus musculus)
chain: CGATCGATATGTCTTCAGGAAATGCAAAAATTGGGTATCCTGCTCCCAACTTCAAAGCTACAGCTGTTATGCCAGATGGACAATTCAAAGATATCAGCCTAAGTGAATACAAAGGAAAATATGTTGTGTTCTTCTTTTACCCTCTTGACTTTACTTTTGTGTGTCCCACGGAGATCATTGCTTTCAGTGATAGAGCCGATGAATTTAAGAAACTCAACTGCCAAGTGATTGGCGCTTCTGTGGATTCTCACTTCTGTCATCTGGCATGGATTAACACACCCAAGAAACAAGGAGGATTGGGACCCATGAACATTCCCTTAATATCAGATCCCAAGCGCACCATTGCTCAGGATTATGGAGTCTTAAAGGCTGATGAAGGTATCTCTTTCAGGGGCCTTTTTATTATTGATGATAAAGGTATCCTTCGACAGATAACAATAAACGATCTTCCCGTTGGCCGCTCTGTGGATGAGATTATACGACTAGTCCAGGCCTTCCAGTTCACTGACAAACATGGTGAAGTGTGTCCAGCTGGCTGGAAACCTGGCAGTGATACCATCAAGCCTGATGTCAATAAGAGCAAAGAGTATTTCTCTAAGCAGAAGGCGGCCGCTT
For the molecule B2, the “Validation in vitro (coop over BMP2) C2C12” value in the data set on C2C12 cells is “−”. In addition, the “Validation in vitro (coop over BMP2) C3H10T1/2” value with C3H10T1/2 cells is reported as “−”.

B3: 63 (nucleic acid, listed as Mus musculus)
chain: CGGAATTCGCCATGTCAACAGCAGGAGTTGCTGCTCAGGATATTCGAGTCCCATTAAAAACTGGATTTCTCCATAATGGTCAGGCCTTGGGGAATATGAAGTCCTGCTGGGGCAGTCACAGTGAGTTTGAAAATAACTTTTTAAATATTGATCCAATAACCATGGCCTACAATCTGAACTCCCCTGCTCAGGAGCACCTAACAACTGTTGGATGTGCTGCTCGGTCTGCTCCAGGGAGCGGCCACTTCTTTGCAGAGTGTGGTCCATCTCCAAGGTCAAGCTTGCCCCCTCTTGTTATCTCACCAAGTGAAAGCTCGGGACAGCGTGAAGAGGATCAAGTTATGTGTGGTTTTAAGAAACTCTCAGTGAATGGGGTCTGCACTTCCACACCTCCACTTACACCCATTAAAAGCTGCCCTTCCCCTTTCCCCTGTGCGGCTCTGTGTGATCGGGGTTCTCGGCCGCTCCCGCCACTGCCCATCTCTGAAGACCTATGTGTGGATGAGGCCGACAGTGAGGTAGAGCTTCTAACCACCAGCTCAGACACAGACTTGCTTTTAGAAGACTCTGCGCCTTCAGATTTCAAATACGATGCTCCTGGCAGGCGCAGCTTCCGTGGGTGCGGCCAGATCAACTATGCATATTTTGACAGCCCAACTGTTTCTGTGGCAGATCTTAGCTGTGCATCTGACCAGAACAGAGTTGTTCCAGACCCAAACCCTCCCCCACCTCAAAGCCATCGCAGATTAAGGAGGTCTCACTCAGGACCAGCTGGGTCATTTAACAAGCCAGCCATTCGGATATCTAGCTGCACACACAGAGCTTCTCCTAGCTCTGATGAAGACAAGCCTGAGGTCCCTCCCAGGGTTCCTATACCTCCTAGGCCAGCAAAGCCAGACTATAGACGGTGGTCAGCAGAAGTGACCTCCAACACCTACAGTGATGAAGATAGGCCTCCCAAAGTCCCCCCGAGAGAACCTTTGTCTCGGAGTAACTCCCGTACCCCAAGTCCTAAAAGCCTTCCGTCTTACCTCAATGGGGTCATGCCCCCAACACAGAGCTTCGCTCCTGACCCCAAGTATGTCAGCAGCAAAGCCCTGCAGAGACAGAGCAGCGAAGGATCTGCCAACAAGGTTCCTTGCATCCTGCCCATTATTGAAAATGGGAAGAAGGTTAGCTCAACGCATTATTACTTACTACCTGAGAGGCCACCGTACCTGGACAAATATGAAAAGTATTTTAAGGAAGCAGAAGAAACAAACCCAAGCACCCAAATTCAGCCATTACCTGCTGCCTGTGGTATGGCCTCTGCCACAGAAAAGCTGGCCTCCAGAATGAAAATAGATATGGGTAGCCACGGGAAGCGCAAACACTTATCCTACGTGGTTTCTCCAGCGGCCGCTT
With B3, in the data set with C2C12 cells, the “Validation in vitro (coop over BMP2) C2C12” value is on record as “−”. In the data set with C3H10T1/2 cells, the “Validation in vitro (coop over BMP2) C3H10T1/2” value is given as “−”.

B4: 11 (nucleic acid, listed as Mus musculus)
chain: AATCTAGAATGCAGTGGGCCTCCGTCCTGCTGCTGGCTGGGCTCTGCTCACTTTCCCAGGGCCAGTATGATGAAGACTCTCACTGGTGGATCCAATACCTCCGAAACCAGCAGTCCACCTACTACGACCCCTATGACCCTTACCCCTATGAGCCCTCTGAGCCTTACCCCTATGGAGTGGAAGAAGGCCCAGCCTATGCCTATGGTGCACCACCTCCACCAGAGCCCCGTGATTGTCCCCAAGAATGCGACTGTCCCCCCAACTTCCCCACAGCCATGTACTGTGACAACCGCAACCTCAAGTACCTGCCTTTTGTGCCCTCCCGCATGAAGTACGTCTACTTCCAGAACAACCAGATCTCTGCCATCCAGGAAGGTGTCTTTGACAATGCCACTGGGCTCCTCTGGGTCGCTCTACATGGCAACCAGATTACCAGTGACAAGGTAGGCAGGAAAGTCTTCTCCAAGCTGAGGCACTTGGAGAGGCTGTACTTGGACCACAACAACCTGACCCGGATGCCCGGCCCGCTGCCCCGATCCCTGAGAGAGCTCCACCTGGACCACAACCAGATCTCACGGGTCCCCAACAATGCTTTGGAGGGCCTGGAGAACCTCACGGCCTTATATCTCCACCACAATGAGATCCAGGAAGTGGGGAGTTCCATGAGAGGCCTCCGGTCCCTGATCCTACTAGACCTGAGTTATAACCACCTTCGGAGGGTACCCGACGGTCTGCCCTCAGCCCTGGAGCAGCTGTACCTAGAACACAACAATGTCTACACCGTCCCTGACAGCTACTTCCGGGGGTCACCCAAGCTGCTGTACGTCCGGTTGTCTCACAACAGTCTCACTAACAACGGCCTTGCTACCAACACCTTCAACTCCAGCAGCCTTCTTGAGCTAGACTTGTCTTACAATCAGCTGCAGAAGATCCCTCCTGTCAACACCAACCTGGAGAATCTTTACCTCCAGGGCAACAGGATCAATGAGTTCTCCATCAGCAGCTTCTGCACGGTGGTGGACGTCATGAACTTCTCCAAGCTGCAGGTGCTACGCCTGGATGGGAACGAGATCAAGCGCAGCGCAATGCCGGTGGACGCCCCACTCTGCCTGCGCCTCGCCAACCTCATCGAGATCACTAGTAA
For B4, in the data set with C2C12 cells, the “Validation in vitro (coop over BMP2) C2C12” value was “−”. Moreover, the “Validation in vitro (coop over BMP2) C3H10T1/2” value in the data set with C3H10T1/2 cells is recorded as “−”. In addition, in the data set on C3H10T1/2 cells (alkaline phosphatase at 48 hours), the “Validation in C2H10T1/2 (coop over BMP2)” value is recorded as “− coop over BMP2”.
